Data as given in the nanobody polyreactivity screen of Harvey et al. (2022).

Assay: yeast display, Sf9 membrane polyspecificity reagent, FACS + sequencing; frameworks hold sequencing errors
In short: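 Genes from sorted yeast were amplified by colony PCR, read by MiSeq 2 × 250 sequencing and filtered on CDR length. These cells carried a synthetic nanobody library in Saccharomyces cerevisiae BJ5465 and were sorted by FACS into low and high (top ~1%) gates on anti-HA and streptavidin fluorescence. Polyreactivity is labelled according to the gate of origin.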

Row | Sequence | polyreactivity (PSR sort gate)
1 | QVQLVESGGGLVKAGGSLRLSCAASGFIFLQYVMGSYRQAPVKERELVAAITSGGSTYYADSVKARFTISRDNAKNTVYLQMNSLKPEDTAVYFCATDVADNTFDALYGSDYWGQCTQVTVSS | low polyreactivity
2 | QVQLVESGGGLVKAGGSLRLSCAASGIIFDYYAMGWYRQAPGKERELVAAISWDGGRTYYADSVKGRFTISRDNAKNTVYLQMNSLKPEDTAVYYCNKDYWYGYSDFDYWGQGTQVTVSS | low polyreactivity
3 | QVQLVESGGGLVKAGGSLRLSCAASGLIFIAYDMGWYRQAPGKERELVAAISSSGGSTYYADSVKGRFTISRDNAKNTVYFQMNSLKPEDTAVYYCASDTTKLQGVEGDYWGQGTQGTVSS | low polyreactivity
4 | QVQLVESGGGLVKAGGSLRLSCAASGLIFRRNAMGWYRQAPGKERELVATINFRDTTRYADSVKGRFTISRDNAKNTVYFQMNSLKPEDTAVYYCATEWPERDWWVHKMDYWGQGTQVTVSS | low polyreactivity
5 | QVQLVESGGGLVKAGGSLRLSCAASGLTFRVYAMGWYRQAPGKECELVATISRTGSTTYAESVQGRFTISRDNAKNTVYLQMNSLKPEDTAVYYCNARYYFLLWDSLAREYWGQGTQVTVTS | high polyreactivity
6 | QVQLVESGGGLVKAGGSLRLSCAASGRIFWHNAMGWYRQAPGNERELVAAITGGGSTYYADSVKGRFTISRDNAKNTVYLQMNSLKPEDTAVYYCATLGSLRYYWPGYDYWGQGTQVTVSS | low polyreactivity
7 | QVQLVESGGGLVKAGGSLRLSCAASGRIFYWYALGWYRQAPGKEREFVAVISQGGGSTRYADSVKGRFTISRDNAKNTVYLHMNSLKPEDTAVYYCAASHSRWRQGYGYWGQGTQVTVSS | high polyreactivity
8 | QVQLVESGGGLVKAGGSLRLSCAASGRNFKTYAMGWYRQAPGKERELVAAISRDGRTYYADSVKGRFTISRDNAKNTVYLQMNSLKPEDTAVYFCNKRSYRKGDYWGQGTQVTVSS | low polyreactivity
9 | QVQLVESGGGLVKAGGSLRLSCAASGRTFGVYAMGWYRQAPGKEREFVAVISWSDDSTYYADSVKGRFTISRDNAKNTVYFQMNSLKPEDSAVYYCAAQTPYGMYYWRQGTQVTVSS | low polyreactivity
10 | QVQLVESGGGLVKAGGSLRLSCAASGRTFRAYAMGWYRQAPGKERELVAAITSGGSTKYADSVKGRFTISRDNAKNTVYLQMNSLKPEETAVYYCNARFDRVYQLKWWYSYDYWGQCTQVTVSS | high polyreactivity
11 | QVQLVESGGGLVKAGGSLRLSCAASGSIFGRYAMGWYRQAPGKERELVAAISSGGRTYADSVKGRFTISRDNAKNTVYLQMNSLNPEDTAVYYCNARYDGRNSVGPYLGYNYWGQGTQVTVSS | high polyreactivity
12 | QVQLVESGGGLVKAGGSLRLSCAASGSIFGSYAMGWYRQAPGKERSTYYADSVKGRFTISRDNAKNTVYLQMNSLKPEDTAVYYRAADTYGYQGSAGGHWGLGTQVTVSS | low polyreactivity
13 | QVQLVESGGGLVKAGGSLRLSCAASGSIFSNNAMGWYRQAPGKEREFVAAIRGRGTRTYYADSVKGRFTISRDNAKNTVYLQMNSLKPEDTAVYYCAKYPFQPRDLQFNYWGQGTQVTVSS | high polyreactivity
14 | QVQLVESGGGLVKAGGSLRLSCAASGSIFTRNAMGWYRQAPGKERELVAAIRSRGGSTYYADSVKGRFTISRDNAKNTVYLQMNSLKPEDNAVYYCAKKDNTYIFDYWGQGTQVTVSS | low polyreactivity
15 | QVQLVESGGGLVKAGGSLRLSCAASGSTFEYDMGWYRPAPGKERELVAAITWTDGGTYYADSVNGRCTISRDNAKNTVYFQMNSLKPEDTAVYYCNAEGWFADFDSGFYAFDYWGQGTQVTVSS | low polyreactivity
16 | QVQLVESGGGLVKAGGSLRLSCAASGSTFGSNALGWYRQAPGKERELVAAISNSGGRTYYADSVKGRFTISRDNAKNTVYLQMNSLKPEDTAVYYCAVGSYRDGDYWGQGTQVTVSS | high polyreactivity
17 | QVQLVESGGGLVKAGGSLRLSCAASGSTFHIYAMGWYRQAPGKERELVAAISKGGGNTYYADSVKGRFTISRDNAKNTVYLQMNSLKPEDTAVYYCAAVPTRYRSYTYTYGGYNYWGQGTQVTVSS | high polyreactivity
18 | QVQLVESGGGLVKAGGSLRLSCAASGSTFRYYAMGWYRQAPGKERELVAGITTGGGRTYYADSVKGRFTISRDNAKNTVYLQMNSLKPEDTAVYYCAADRYSHYWYRISYDYWGQGTQVTVSS | high polyreactivity
19 | QVQLVESGGGLVKAGGSLRLSFAASGRIFRRYAMGWCGPAPGKEREFVAAITKSGGSTNYADSVKGRFTISRDNANNTVYLQMNSLKPEDTAVYYCATYPQFYFRYDYWGLGTQVTVSS | high polyreactivity
20 | QVQLVESGGGLVKAGGSLRLSFAASGSIFEPYVMGWYRQAPGKQRELVAAISESGDTTYYADSVKGRFTISRDNAKTTVYLKMNSLKPEDTAVYDCNAEDPSIYGWWRVGEYDYWGQGTQVTVSS | low polyreactivity
21 | QVQLVESGGGLVKAGGSLRLSSAASGRTFFRNAMGWYRQEPGKERELVAVISDNGGTNYADSVKGRFTMSRDNAKNTVYLQLNSLKPEDTAVDYCATPKRRRYPYYYWGLGTQVTVSS | high polyreactivity
22 | QVQLVESGGGLVKAGGSLRLTCAASGIILRANVMGWYRQAAGKERELLAAISGSGGRTYYADSVKGRFTISRDNAKNSVYLPMNSLKPEDTAVYYCNTPYGLHQAYPYDYWGLGTQVTVSS | high polyreactivity

Row | Sequence | polyreactivity (PSR sort gate)
23 | QVQLVESGGGLVKAGGSLRLTCAASGSIFKIYSMGWYIQAPGKERELVATITWSTGTTYYADSVKGRFTISRDNAKNTVFLQMNSLKPEDTAVYYCATEPSWYHGFIDPRGYWGQATQVTVSS | low polyreactivity
24 | QVQLVESGGGLVKAGGTLSLSCAASGFIFGFNAMGWYRQAPGKERELVADITSSGGSTYYADSVKGRFTISRDNAKNTVYLQMNSLKPEDTAVYYCAADGWWHNFYPGTGLDYWGQGTQVSVSS | low polyreactivity
25 | QVQLVESGGGLVLAGGSLPLSCAASGSIIWRNAMGWSRHAPVKERELVAAITWNGGSTYYADSVKGCFTSSRDNAKNTVYLQMNSLIPEDTAVYYSAARCEYPYDYWGQGSQVTVSS | low polyreactivity
26 | QVQLVESGGGLVLAGGSLRLSCAASGFIFARYAMGWYRQAPGKERELVAAISRGGSTYYADSVKGRFTISRDNAKNTVYFQMHSLKPEDTAVYYCNKRQLPNARGSSTYEYWGQGTQVTVSS | high polyreactivity
27 | QVQLVESGGGLVLAGGSLRLSCAASGRTFRTYTMGWYRQAPGKERELVAAISYSGGSTYYADSVKGRFTISRDNAKNTVYLQMNSLKPEDTAVYYCAVYQVGWYGLMDYWGEGTQVTVSS | high polyreactivity
28 | QVQLVESGGGLVLAGGSLRLSCAASGSTFRGNAMGWYRQAPGKERELVAAITRRGGSTYYADSVKGRFTISRDNAKNTVYLQMNSLKPEDTAVYYCAKVTTYVSAWQGNGYWGQGTQVTVSS | high polyreactivity
29 | QVQLVESGGGLVLAGGSLRLTWAASGSIFHYYAMGWYRQAPGKERELVAAISWSGGRTYYADSVKGRFTISRDNAKNTVYLEMNSLKPEDTAVYFCAADTYPYIGGYYWGQGTQVTVSS | high polyreactivity
30 | QVQLVESGGGLVNAGGSLRLICDASGLIFYKNAMGWYRQAPGKERELVAAISWRDGRTYYADSVKGRFTISRDNAKNTVYLQMISLIPEDSAVYYCNAVRGITSYDYYYWGQGTQVTVSS | high polyreactivity
31 | QVQLVESGGGLVPAGGSLRLSCAASGRIFFRNAMGWYRQAPGKERELVAAITYSGGSTYYADSVKGRFTISRDNAKNTVYLQMNSLKPEDTAVSYCAAGYWFSYSRVTRYDYWGQGTQVTVSS | high polyreactivity
32 | QVQLVESGGGLVPAGGSLRLSCAASGRIFGYYAMGWYRQATGKERELLATIRWRGGSPYYADSVKGRFTISRDNAKNTVYLQMNSLKPEVTAVYYCAATRARRWSSPGQYGYWGQGTQVTVSS | high polyreactivity
33 | QVQLVESGGGLVPAGGSLRLSCAASGRISDLYAMGCYRQAPGKETEVVAGSTWRGGSTYYADSVKGRFTISRDNAKNTVYLQMNSLKPEDTAVYYCNAVWVQQVVGDGKRTWNFWYDYWGQGTQVTVSS | low polyreactivity
34 | QVQLVESGGGLVPAGGSLRLSCAASGRTFGYYAMGWYRPAPGKERELVAAITSNGGSTYYADSVKGRFTISRDNAKNTVYLQMNSLKPEDTAVYYCNTGRRNRLYDYDYWGQGTQVTVSS | high polyreactivity
35 | QVQLVESGGGLVPAGGSLRLSCAASGSTFIPNTMGWYRQAPGKERELVAAISRRGGSTNYADSVKGRFTISRDNAKNTVYLQMNSLKPEDTAVYYCAAVSPRRYRYDYWGQGTQVTVSS | low polyreactivity
36 | QVQLVESGGGLVPAGGSLRLSCAASGSTFPVYAMGWYRPAPGTERELVAAINSGVSTNYADSVKGRFTMSRDNANTTVYLQRNSLKPEDTAVYYCNTSYVGYPDLGINYEFDYWGQGTQVTVSS | low polyreactivity
37 | QVQLVESGGGLVPAGGSLRLSCAASGSTFYIYAMGWYRQAPGKERELVAAISRRGSSTYYADSVKGRFTISRDNAKNTVYLQMNSLIPEDTAVYYCAASQRHDHYYWGQGTQVTVSS | high polyreactivity
38 | QVQLVESGGGLVQAAGSLRISCAASGRTFATNAMGWYRQAPGKERELVAVISASGGSTYYADSVKGRFTISRDNAKNTVYLQMNSLKPEDTAVYYCAADVYRRYDYWGQGTQVTVSS | high polyreactivity
39 | QVQLVESGGGLVQAAGSLRLICAASGRTFDSYAMGRYRQAPGKEREFVAAISYSGTSTYYADSVKGRFTISRDDAKNTVYLQMNSLKPEDTAVYYCAKEYIFRLWGQGTQVTVSS | low polyreactivity
40 | QVQLVESGGGLVQAAGSLRLICDASGFTFDLYAMGWYRQAPGKERELVAAISWSGGSTRYADSVKGGFTISRDNSKNTVYLQMTSLKPEDTALYYCARQPRLYFKVKLYGYWGQGTQVTVSS | high polyreactivity
41 | QVQLVESGGGLVQAAGSLRLSCAASGLTFFGYAMGWYRQAPGKERELVAAISSSGTRTYYADSVKGRFTISRDHAKNTVYLQMNSLKPEDTAFYYCASGRYQEYDYWGQGTQVTVSS | high polyreactivity
42 | QVQLVESGGGLVQAAGSLRLSCAASGLTFPFYTMGWYIQAPGKARELVAAISRRGGSTYYADSVKGRFTISRDNAKNTVYLQMNSLKPEDTAVYYCAADKYSWYDYWGQGTQVTVSS | low polyreactivity
43 | QVQLVESGGGLVQAAGSLRLSCAASGRIFFAYAMGWNRQEPGKERELVASITSGGSTNYADSVKGRFTISRDNAKNTVYLQMNSLKPEDTAVYYCAARSRFSNLYVRFYYWGQGTQVTVSS | high polyreactivity
